Assay results taken from patent US20260167721A1 (ABLEXIS, published 2026).
Positions count from the first letter of the chain named.

B1: ABL-CD3-4 (antibody, V domains shown)
VH: VQLVESGGGLVKPGGSLRLSCAASGFTFSSYNMNWVRQAPGKGLEWVSSISSSSSYIYYADSVKGRFTISRDNAKNSLYLQMNSLRAEDTAVFYCARAERGSYAFDIWGQGTMVTVSS
VL: not shown
notes: Chimeric hybridoma mAb: human V, CH1, upper hinge; mouse middle hinge, CH2, CH3
B2: ABL-CD3-3 (antibody, V domains shown)
VH: EVQLVESGGGLVKPGGSLRLSCAASGFTFSSYSMNWVRQAPGKGLEWVSYISRSSNYIHYADSVKGRFTIFRDNAKNSLYLQMNSLRVEDTAVYYCARAERGSYAVDIWGQGTMVTVSS
VL: not shown
notes: as for B1
B3: ABL-CD3-5 (antibody, V domains shown)
VH: EVQLVESGGGLVQPGGSLRLSCAASGFTFSRYSMNWVRQAPGKGLEWVSYISSSSSSIYYADSVKGRFTISRDNAKNSLYLQMNSLRDEDTAVYYCARDRRATLDYWGQGTLVTVSS
VL: NFMLTQPHSVSESPGKTVTISCTRSSGSIASNYVQWYQQRPGSSPTTVIYEDNQRPSGVPDRFSGSIDSSSNSASLTISGLKTEDEADYYCQSYDSSNHVFGGGTKLTVL
notes: as for B1
B4: ABL-CD3-53 (antibody, V domains shown)
VH: EVQLVESGGGLVKPGGSLRLSCAASGFTFSSYTMNWVRQAPGKGLEWVSSITTSSSYIYYADSVKGRFTISRDNAKNSLYLQMNSLRAEDTAVYYCARVTFDAFDIWGQGTMVTVSS
VL: B3 VL with H99R
notes: as for B1
B5: ABL-CD3-20 (antibody, V domains shown)
VH: EVQLVESGGGLVKPGGSLRLSCAASGLTFSTYSMNWVRQAPGKGLEWVSSISSSGSYVYYADSVKGRFTMSRDNAKNSLYLQMNSLRAEDTAVYYCARERRELLFDYWGQGTLVTVSS
VL: B3 VL with T47S, S96R, H99R
notes: as for B1
B6: ABL-CD3-55 (antibody, V domains shown)
VH: B5 VH with L27F, T31I, S54G, G55S, V58I, M70I, N77S, Y80F, R100K
VL: B3 VL with S69R, H99R
notes: as for B1
B7: ABL-CD3-28 (antibody, V domains shown)
VH: QVQLQQSGPGLVKPSQTLSLTCAISGDSVSSNSVAWNWIRQSPSRGLEWLGRTYYRSKWYNECAGSVKSRITINPDTSKNQFSLQLNSVTPEDTAIYYCARERKWELFLDYWGQGTLVTVSS
VL: B3 VL with Y94F, H99V
notes: as for B1
B8: ABL-CD3-48 (antibody, V domains shown)
VH: EVQLVESGGGLVKPGGSLRLSCAASGFTFSSYTMNWVRQAPGKGLEWVSSISGSGSYIYYADSVKGRFTISRDNAKNSLYLQMNSLRAEDTAVYYCAREPPTLGMDYWGQGTLVTVSS
VL: B3 VL with Y94F, H99R
notes: as for B1
B9: ABL-CD3-54 (antibody, V domains shown)
VH: B5 VH with L27F, T31S, S53R, G55S, S56R, V58I, Y59F, K65R, M70I, R100K
VL: B3 VL with F2S, N32Y, Y94F, H99R
notes: as for B1
B10: ABL-CD3-12 (antibody, V domains shown)
VH: B8 VH with G53R, G55S, I58K, T115I
VL: B3 VL with S26N, A30T, Y94F, S96N, H99R, G103E, G104K
notes: as for B1
B11: ABL-CD3-7 (antibody, V domains shown)
VH: B8 VH with S31R, T33S, E46K, G53S, I58K
VL: B3 VL with Y94F, S96N, H99R
notes: as for B1
B12: ABL-CD3-47 (antibody, V domains shown)
VH: EVQLVESGGGLVQPGGSLRLSCAASGFTFSRYSMNWVRQAPGKGLEWVSYISRSSTTIYYADSVKGRFTISRDNAKNSLYLQMNSLRDEDAAVYYCARERWELLYFDYWGQGTLVTVSS
VL: B3 VL with N32K, D95Y, S97N, H99R
notes: as for B1
B13: ABL-CD3-26 (antibody, V domains shown)
VH: B8 VH with Q3H, T33S, G53S, G55S, S56T, P101R, T112I
VL: B3 VL with Q54H, Y90F, Y94F, H99R
notes: as for B1
B14: ABL-CD3-50 (antibody, V domains shown)
VH: B7 VH with Y55S, E62D, C63Y, G65V, Q85E, I96V
VL: B3 VL with S43I, Y94F, S96T, H99V
notes: as for B1
B15: ABL-CD3-24 (antibody, V domains shown)
VH: B8 VH with A23V, G53R, I58K, Y60N, A88V
VL: B3 VL with Y94F, D95Y, H99R, K106E
notes: as for B1
B16: ABL-CD3-10 (antibody, V domains shown)
VH: B7 VH with S31C, Y60H, C63Y, G65V, T72N, N74K, F82V, N87K, I96V
VL: B3 VL with V48M, Y94L, N98S, H99V
notes: as for B1
B17: ABL-CD3-56 (antibody, V domains shown)
VH: EVQLVESGGGLVKPGGSLRLSCVASGFTFSRYSMNWVRQAPGKGLEWVSSISSSSRYTYYADSLKGRFIMSRDNAKNSLFLQMNSLRAEDTAVYYCARNLYNALDYWGQGTLVTVSS
VL: FMLTQPHSVSESPGKTVTISCTRSSGSIASNYVQWYQQRPGSSPTTVIYEDNQRPSGVPDRFSGSIDSSSNSASLTISGLQTEDEADYYCQSYDSSNRVFGGGTKLTVL
notes: as for B1
B18: ABL-CD3-86 (antibody, V domains shown)
VH: EVQLVESGGGLVKPGGSLRLSCAASGFTFSRYSMNWVRQAPGKGLEWVSTISRSSRYIYYGDSVKGRFTISRDNAKNSLLLQMNSLRAEDTAVYYCARDHNWSFDYWGKGILVTVSS
VL: B3 VL with H8L, V18L, S25N, Q38R, N53K, T83A, Y94C, H99V, K106T
notes: mAb purified from hybridoma; chimeric AlivaMab IgG (human VH, CH1 and upper hinge; mouse middle hinge, CH2, CH3; human light chain)

molecular target: T1, recombinant human CD3 epsilon/gamma heterodimer (human, UniProt P07766 23-126; P09693 23-116); assay: Octet BLI, mAb on FAB2G sensor, hCD3 E/G 200-50 nM; R^2 0.99
T1 construct: Recombinant protein in solution (200-50 nM) in the Octet assay; also called hCD3 E/G
T1 sequence (P07766 23-126, chain 1 of 2): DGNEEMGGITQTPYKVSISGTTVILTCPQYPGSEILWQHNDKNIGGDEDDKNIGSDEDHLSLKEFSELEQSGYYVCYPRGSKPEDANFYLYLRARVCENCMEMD
T1 sequence (P09693 23-116, chain 2 of 2): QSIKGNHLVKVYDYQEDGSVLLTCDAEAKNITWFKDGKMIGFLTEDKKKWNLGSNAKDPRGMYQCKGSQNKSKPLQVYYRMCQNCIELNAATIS

Row | Binder | Kd [nM] | Response | koff [s⁻¹] | kon [M⁻¹ s⁻¹]
1 | B1 | 91.9 | 0.36 | 0.0221 | 241000
2 | B2 | 12.4 | 0.96 | 0.00143 | 115000
3 | B3 | 106 | 0.27 | 0.0449 | 423000
4 | B4 | 88.7 | 0.4 | 0.00714 | 80500
5 | B5 | 18.3 | 0.45 | 0.00379 | 207000
6 | B6 | 141 | 0.08 | 0.0894 | 636000
7 | B7 | 5.6 | 0.77 | 0.000798 | 143000
8 | B8 | 17.9 | 1.03 | 0.00179 | 100000
9 | B9 | 19.3 | 0.87 | 0.00258 | 134000
10 | B10 | 10.5 | 1.14 | 0.00124 | 118000
11 | B11 | 8.42 | 0.81 | 0.00142 | 169000
12 | B12 | 36.2 | 0.43 | 0.00785 | 217000
13 | B13 | 9.31 | 1.01 | 0.00123 | 132000
14 | B14 | 12.6 | 0.6 | 0.00247 | 196000
15 | B15 | 8.48 | 0.89 | 0.00134 | 158000
16 | B16 | 2.41 | 0.46 | 0.00039 | 162000
17 | B17 | 0.94 | 1.3 | 0.000102 | 109000

molecular target: T2, recombinant human CD3 epsilon/delta heterodimer (human, UniProt P07766 23-126; P04234 22-105); assay: BLI (Octet), mAb 5 ug/mL on FAB2G sensor, hCD3 E/D 200-50 nM
T2 construct: Recombinant heterodimer used as analyte in Octet; also called hCD3 E/D; human CD3E/D
T2 sequence (P07766 23-126, stated change not applied, chain 1 of 2): as the sequence (P07766 23-126, chain 1 of 2) above
T2 sequence (P04234 22-105, stated change not applied, chain 2 of 2): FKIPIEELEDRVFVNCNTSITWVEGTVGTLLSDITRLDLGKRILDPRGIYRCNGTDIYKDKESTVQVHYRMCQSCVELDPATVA
Protocol: (§1) Samples were evaluated by flow cytometry analysis against Jurkat and human Pan-T cells (FIG. 1B) as well as by Octet against recombinant human CD3 proteins to evaluate apparent affinities and binding off-rates (Table 6, infra).

Row | Binder | Kd [nM] | Response | koff [s⁻¹] | kon [M⁻¹ s⁻¹]
18 | B18 | 3.88 | 1.1 | 0.000711 | 184000

molecular target: T3, recombinant human CD3 epsilon/gamma heterodimer (human, UniProt P07766 23-126; P09693 23-116); assay: BLI (Octet), mAb 5 ug/mL on FAB2G sensor, hCD3 E/G 200-50 nM;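 also: antibodies purified from hybridoma supernatants, measured by Octet binding to recombinant human CD3 protein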
T3 construct: Recombinant heterodimer used as analyte in Octet; also called hCD3 E/G
T3 sequence (P07766 23-126, chain 1 of 2): as the sequence (P07766 23-126, chain 1 of 2) above
T3 sequence (P09693 23-116, chain 2 of 2): as the sequence (P09693 23-116, chain 2 of 2) above
Protocol: as §1

Row | Binder | Kd [nM] | Response | koff [s⁻¹] | kon [M⁻¹ s⁻¹]
19 | B18 | 3.52 | 1.17 | 0.000558 | 158000

molecular target: T4, recombinant human CD3 epsilon/delta heterodimer (human, UniProt P07766 23-126; P04234 22-105); assay: Octet BLI, mAb on FAB2G sensor, hCD3 E/D 200-50 nM; R^2 0.99
T4 construct: Recombinant protein in solution (200-50 nM) in the Octet assay; also called hCD3 E/D; human CD3E/D
T4 sequence (P07766 23-126, stated change not applied, chain 1 of 2): as the sequence (P07766 23-126, chain 1 of 2) above
T4 sequence (P04234 22-105, stated change not applied, chain 2 of 2): as the sequence (P04234 22-105, stated change not applied, chain 2 of 2) above

Row | Binder | Kd [nM] | Response | koff [s⁻¹] | kon [M⁻¹ s⁻¹]
20 | B1 | 94.5 | 0.32 | 0.0302 | 320000
21 | B2 | 10.4 | 1.03 | 0.0012 | 116000
22 | B3 | 88.1 | 0.36 | 0.0321 | 365000
23 | B4 | 146 | 0.24 | 0.0199 | 136000
24 | B5 | 10.5 | 0.51 | 0.00229 | 219000
25 | B6 | 183 | 0.13 | 0.069 | 376000
26 | B7 | 7.88 | 0.77 | 0.00133 | 168000
27 | B8 | 11.5 | 1.17 | 0.00114 | 99300
28 | B9 | 17.6 | 0.87 | 0.00267 | 152000
29 | B10 | 10.6 | 1.21 | 0.00144 | 136000
30 | B11 | 4.14 | 0.86 | 0.000786 | 190000
31 | B12 | 16.9 | 0.62 | 0.00291 | 172000
32 | B13 | 6.66 | 1.03 | 0.00104 | 156000
33 | B14 | 21 | 0.57 | 0.0047 | 224000
34 | B15 | 5.78 | 0.93 | 0.00101 | 175000
35 | B16 | 2.47 | 0.52 | 0.00046 | 186000
36 | B17 | 3.96 | 1.24 | 0.000522 | 132000
